Patent publication US9994628B2, “Peptides and combination of peptides for use in immunotherapy against various tumors” (IMMATICS BIOTECHNOLOGIES GMBH, priority 2015, dated 2018)

molecular target: HLA-A*02:01 (Homo sapiens, UniProt P04439, D140Y/D185E/D98H/E176V/E277Q/G131W/G231S/I119V/I121R/I166T/I218V/L300P/L318F/N151K/N90K/P208A/P217A/Q86G/Q94H/R138H/R169H/T345S); test: MHC binding assay: UV-ligand exchange and β2m ELISA (peptide exchange yield, Table 7); settings: binding of HLA-class I restricted peptides to HLA-A*02:01, UV-ligand exchange
Excerpt: Candidate peptides for T cell based therapies according to the present invention were further tested for their MHC binding capacity (affinity). The individual peptide-MHC complexes were produced by UV-ligand exchange, where a UV-sensitive peptide is cleaved upon UV-irradiation, and exchanged with the peptide of interest as analyzed. Only peptide candidates that can effectively bind and stabilize the peptide-receptive MHC molecules prevent dissociation of the MHC complexes. To determine the yield of the exchange reaction, an ELISA was performed based on the detection of the light chain (β2 m) of stabilized MHC complexes. The assay was performed as generally described in Rodenko et al. (Rodenko et al., 2006).
96 well MAXISorp plates (NUNC) were coated over night with 2 ug/ml streptavidin in PBS at room temperature, washed 4× and blocked for 1 h at 37° C. in 2% BSA containing blocking buffer. Refolded HLA-A*02:01/MLA-001 monomers served as standards, covering the range of 15-500 ng/ml. Peptide-MHC monomers of the UV-exchange reaction were diluted 100 fold in blocking buffer. Samples were incubated for 1 h at 37° C., washed four times, incubated with 2 ug/ml HRP conjugated anti-β2 m for 1 h at 37° C., washed again and detected with TMB solution that is stopped with […]. Absorption was measured at 450 nm. Candidate peptides that show a high exchange yield (preferably higher than 50%, most preferred higher than 75%) are generally preferred for a generation and production of antibodies or fragments thereof, and/or T cell receptors or fragments thereof, as they show sufficient avidity to the MHC molecules and prevent dissociation of the MHC complexes.

Row | Substance | Peptide exchange (MHC class I binding score, peptide exchange yield)
1 | 1 (KLQEKIQEL; listed as Homo sapiens) [compound 1] | ++++ (≥75% = ++++)
2 | 3 (RVIDDSLVVGV; listed as Homo sapiens) [compound 3] | +++ (≥50% = +++)
3 | 4 (VLFGELPAL; listed as Homo sapiens) [compound 4] | +++ (≥50% = +++)
4 | 5 (GLVDIMVHL; listed as Homo sapiens) [compound 5] | +++ (≥50% = +++)
5 | 6 (FLNAIETAL; listed as Homo sapiens) [compound 6] | ++++ (≥75% = ++++)
6 | 7 (ALLQALMEL; listed as Homo sapiens) [compound 7] | +++ (≥50% = +++)
7 | 9 (SLITGQDLLSV; listed as Homo sapiens) [compound 9] | +++ (≥50% = +++)
8 | 10 (QLIEKNWLL; listed as Homo sapiens) [compound 10] | +++ (≥50% = +++)
9 | 11 (LLDPKTIFL; listed as Homo sapiens) [compound 11] | +++ (≥50% = +++)
10 | 12 (RLLDPKTIFL; listed as Homo sapiens) [compound 12] | +++ (≥50% = +++)
11 | 13 (RLHDENILL; listed as Homo sapiens) [compound 13] | +++ (≥50% = +++)
12 | 14 (YTFSGDVQL; listed as Homo sapiens) [compound 14] | +++ (≥50% = +++)
13 | 16 (SLADLSLLL; listed as Homo sapiens) [compound 16] | +++ (≥50% = +++)
14 | 17 (GLLPSAESIKL; listed as Homo sapiens) [compound 17] | ++++ (≥75% = ++++)
15 | 18 (KTASINQNV; listed as Homo sapiens) [compound 18] | ++ (≥20% = ++)
16 | 19 (KVFELDLVTL; listed as Homo sapiens) [compound 19] | ++ (≥20% = ++)
17 | 20 (ALVEKGEFAL; listed as Homo sapiens) [compound 20] | ++ (≥20% = ++)
18 | 21 (YLMDDFSSL; listed as Homo sapiens) [compound 21] | +++ (≥50% = +++)
19 | 22 (LMYPYIYHV; listed as Homo sapiens) [compound 22] | +++ (≥50% = +++)
20 | 23 (ALLSPLSLA; listed as Homo sapiens) [compound 23] | +++ (≥50% = +++)
21 | 24 (KVWSDVTPL; listed as Homo sapiens) [compound 24] | +++ (≥50% = +++)

Row | Substance | Peptide exchange (MHC class I binding score, peptide exchange yield)
22 | 25 (LLWGHPRVALA; listed as Homo sapiens) [compound 25] | +++ (≥50% = +++)
23 | 26 (VLDGKVAVV; listed as Homo sapiens) [compound 26] | +++ (≥50% = +++)
24 | 27 (GLLGKVTSV; listed as Homo sapiens) [compound 27] | +++ (≥50% = +++)
25 | 28 (IKVTDPQLLEL; listed as Homo sapiens) [compound 28] | ++ (≥20% = ++)
26 | 29 (KMISAIPTL; listed as Homo sapiens) [compound 29] | ++ (≥20% = ++)
27 | 30 (IITEVITRL; listed as Homo sapiens) [compound 30] | +++ (≥50% = +++)
28 | 31 (GLLETTGLLAT; listed as Homo sapiens) [compound 31] | +++ (≥50% = +++)
29 | 33 (TLDRNSLYV; listed as Homo sapiens) [compound 33] | ++ (≥20% = ++)
30 | 35 (VIIKGLEEI; listed as Homo sapiens) [compound 35] | ++ (≥20% = ++)
31 | 36 (TVLQELINV; listed as Homo sapiens) [compound 36] | +++ (≥50% = +++)
32 | 37 (QIVELIEKI; listed as Homo sapiens) [compound 37] | ++ (≥20% = ++)
33 | 38 (VLQQESNFL; listed as Homo sapiens) [compound 38] | ++ (≥20% = ++)
34 | 40 (KIWEELSVLEV; listed as Homo sapiens) [compound 40] | +++ (≥50% = +++)
35 | 41 (IVTEIISEI; listed as Homo sapiens) [compound 41] | +++ (≥50% = +++)
36 | 42 (KQMSISTGL; listed as Homo sapiens) [compound 42] | ++ (≥20% = ++)
37 | 44 (AVFNLVHVV; listed as Homo sapiens) [compound 44] | +++ (≥50% = +++)
38 | 45 (FLPVSVVYV; listed as Homo sapiens) [compound 45] | +++ (≥50% = +++)
39 | 47 (GLNGFNVLL; listed as Homo sapiens) [compound 47] | +++ (≥50% = +++)
40 | 48 (KISDFGLATV; listed as Homo sapiens) [compound 48] | +++ (≥50% = +++)
41 | 49 (KLIGNIHGNEV; listed as Homo sapiens) [compound 49] | ++ (≥20% = ++)
42 | 50 (ILLSVLHQL; listed as Homo sapiens) [compound 50] | +++ (≥50% = +++)

Row | Substance | Peptide exchange (MHC class I binding score, peptide exchange yield)
43 | 51 (LDSEALLTL; listed as Homo sapiens) [compound 51] | ++ (≥20% = ++)
44 | 52 (TIGIPFPNV; listed as Homo sapiens) [compound 52] | ++ (≥20% = ++)
45 | 53 (AQHLSTLLL; listed as Homo sapiens) [compound 53] | + (≥10% = +)
46 | 54 (YLVPGLVAA; listed as Homo sapiens) [compound 54] | +++ (≥50% = +++)
47 | 55 (HLFDKIIKI; listed as Homo sapiens) [compound 55] | +++ (≥50% = +++)
48 | 57 (TLYPGRFDYV; listed as Homo sapiens) [compound 57] | ++ (≥20% = ++)
49 | 58 (HLLGEGAFAQV; listed as Homo sapiens) [compound 58] | +++ (≥50% = +++)
50 | 59 (ALADGIKSFLL; listed as Homo sapiens) [compound 59] | +++ (≥50% = +++)
51 | 60 (YLFSQGLQGL; listed as Homo sapiens) [compound 60] | +++ (≥50% = +++)
52 | 61 (ALYPKEITL; listed as Homo sapiens) [compound 61] | +++ (≥50% = +++)
53 | 62 (SLVENIHVL; listed as Homo sapiens) [compound 62] | +++ (≥50% = +++)
54 | 63 (KLLPMVIQL; listed as Homo sapiens) [compound 63] | +++ (≥50% = +++)
55 | 64 (SLYAGSNNQV; listed as Homo sapiens) [compound 64] | ++ (≥20% = ++)
56 | 65 (SLSEKSPEV; listed as Homo sapiens) [compound 65] | ++ (≥20% = ++)
57 | 66 (AMFPDTIPRV; listed as Homo sapiens) [compound 66] | ++ (≥20% = ++)
58 | 67 (FLIENLLAA; listed as Homo sapiens) [compound 67] | +++ (≥50% = +++)
59 | 68 (QLMNLIRSV; listed as Homo sapiens) [compound 68] | +++ (≥50% = +++)
60 | 69 (LKVLKADVVL; listed as Homo sapiens) [compound 69] | ++ (≥20% = ++)
61 | 70 (GLTEKTVLV; listed as Homo sapiens) [compound 70] | ++ (≥20% = ++)
62 | 71 (HMSGKLTNV; listed as Homo sapiens) [compound 71] | ++ (≥20% = ++)
63 | 72 (VLSTRVTNV; listed as Homo sapiens) [compound 72] | ++ (≥20% = ++)
